Measurements from patent US7960513B2, “Antibody against a human ADAM protease” (Monash University, priority 2004, dated 2011).

Target: T1, EphA3 (Homo sapiens, UniProt P29320)
T1 construct: expressed in transfected cells
T1 sequence (P29320 21-983): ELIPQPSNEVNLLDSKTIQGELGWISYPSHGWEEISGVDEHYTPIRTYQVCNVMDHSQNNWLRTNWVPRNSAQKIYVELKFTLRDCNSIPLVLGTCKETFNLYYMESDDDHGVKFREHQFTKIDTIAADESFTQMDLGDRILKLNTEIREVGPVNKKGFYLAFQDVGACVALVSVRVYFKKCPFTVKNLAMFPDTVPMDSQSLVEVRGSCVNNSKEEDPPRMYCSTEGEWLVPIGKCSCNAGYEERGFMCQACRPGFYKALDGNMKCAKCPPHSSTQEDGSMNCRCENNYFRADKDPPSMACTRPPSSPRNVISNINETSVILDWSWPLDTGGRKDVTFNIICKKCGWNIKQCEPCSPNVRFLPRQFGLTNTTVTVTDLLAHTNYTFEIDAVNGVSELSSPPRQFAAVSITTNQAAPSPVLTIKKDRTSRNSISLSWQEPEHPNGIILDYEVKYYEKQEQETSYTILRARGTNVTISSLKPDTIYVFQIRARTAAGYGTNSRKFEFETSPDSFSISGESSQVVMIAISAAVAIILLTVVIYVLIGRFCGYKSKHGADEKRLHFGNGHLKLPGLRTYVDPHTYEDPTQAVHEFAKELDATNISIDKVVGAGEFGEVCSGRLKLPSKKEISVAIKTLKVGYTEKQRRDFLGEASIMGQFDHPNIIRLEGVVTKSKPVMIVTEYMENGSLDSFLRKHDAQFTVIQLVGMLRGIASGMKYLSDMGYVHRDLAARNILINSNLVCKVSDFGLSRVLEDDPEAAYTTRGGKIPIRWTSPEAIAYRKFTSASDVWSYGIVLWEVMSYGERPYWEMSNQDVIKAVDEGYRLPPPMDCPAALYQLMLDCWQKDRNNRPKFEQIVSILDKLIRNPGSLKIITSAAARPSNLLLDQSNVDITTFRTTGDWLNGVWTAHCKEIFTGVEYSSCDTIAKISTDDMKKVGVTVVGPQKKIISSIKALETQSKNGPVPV
Test: Co-immunoprecipitation from transfected cells, Western blot
Format: cell-based
Details: EphA3/293 cells, EEE-A substituted construct
Protocol: FIG. 1. EphA3-ADAM10 association, ephrin-A5 cleavage and ephrin internalisation. • A. Association of ADAM10 with EphA3 in LiBr melanoma cells and parental or stably transfected EphA3/HEK293 cells. The cells were treated with clustered ephrin-Fc (A5 or A2) or were left untreated (−) prior to lysis. Anti-EphA3 immunoprecipitates from lysates were analysed by Western blot for endogenous ADAM10 (“p” and “m” indicate the pro (unprocessed) and mature (processed) forms of ADAM10). Aliquots from immunoprecipitates were blotted for EphA3 levels to indicate loading (lower panel). […] EphA3/HEK293 or ephrin-A5/HEK293 cells were transfected to express HA-tagged ADAM10ΔPM. Western Blots of anti-HA immuno-precipitates were analysed with antibodies against ephrin-A5 and EphA3, parallel control samples with anti-ADAM10 antibodies. Lysates of ephrin-A5/HEK 293 cells were also extracted with Protein-A Sepharose-bound EphA3 Fc and analysed with anti-ephrin-A5 antibodies. • C. […] Pooled cell lysates and supernatants were pre-cleared with excess Protein-A Sepharose, cleaved ephrin-A5 was extracted using EphA3-Fc coupled to Protein-A Sepharose and analysed by anti-ephrin-A5 immuno-blot. Recombinant, monomeric, single-chain ephrin-A5 (Himanen et al., 2004, Nat Neurosci. 7 501-9; ephrin std) was analysed in parallel. • D. Ephrin-A5 cleavage and internalisation are inhibited by dominant-negative ADAM10. […]

ephrin-independent constitutive association with EphA3: remained unchanged
B1: ADAM10Δpro: cell-surface ADAM10Δpro incorporating the EEE-A amino acid substitutions (protein)
chain: SGQPICGNGMVEQGEECDCGYSDQCKDDCCFDANQPEGKKCKLKPGKQCSPSQGPCCTAQCAFKSKSEKCRDDSDCAKEGICNGFTALCPASDPKPNFTDCNRHTQVCINGQCAGSICAKYDLAACTCASSDGKDDKELCHVCCMKKMAPSTCASTGSLQWSKQFSGRTITLQPGSPCNDFRGYCDVFMRCRLVDADGPLARLKKAIFSPQLYENIAEWIVAHWWAVLLMGIALIMLMAGFIKICSVHTPSSNPKLPPPKPLPGTLKRRRPPQPIQQPPRQRPRESYQMGHMRR
modifications: left off: small tags and cut ends
notes: cell-surface ADAM10Δpro incorporating the EEE-A amino acid substitutions
